The text below walks through data of patent US20260234232A1 (QUAERITE BIOPHARM RESEARCH BEIJING, published 2026).

Numbering of substitutions follows the chain as printed. Read-outs that look alike come from different tables or passages of the source.

Experiment [1] concerns the target T1, human VEGFA165 (human, UniProt P15692-4 27-191).
T1 construct: Bought protein from two suppliers, treated as one molecule; the supplier is named under assay; also called antigen VEGFA
The experiment is described as follows: ELISA, coated human VEGFA165, anti-His detection. The procedure: (§1) Antigen human VEGFA165 (label-free, purchased from Sino Biological, Cat. No.: HPLC-10008-HNAH, hereinafter referred to as VEGFA) was diluted with ELISA coating buffer to a final concentration of 0.3 μg/mL and added to a microplate at 100 μL/well for coating at 4° C. overnight. […] The solution used for antibody dilution was PBS containing 0.1% Tween-20 (pH 7.4), i.e., PBST. After being incubated at 37° C. for 1 h, the microplate was washed 3 times with PBST, and a dilution of His-Tag murine monoclonal antibody (purchased from Proteintech, Cat. No.: 66005-1-Ig) was added. The plate was further incubated at 37° C. for 1 h and washed again. Subsequently, a dilution of HRP-labeled goat anti-mouse IgG antibody (HRP-conjugated Affinipure Goat Anti-Mouse IgG (H+L), purchased from Proteintech, Cat. No.: SA00001-1) was added, and the plate was incubated at room temperature for 45 min. After the plate was washed, 100 μL of TMB (purchased from Tiangen Biotech, Cat. No.: PA107-01) was added to each well for color development at 37° C. for 15 min, followed by the addition of 50 μL of stopping solution. The absorbance at 450 nm (OD450) was measured using a microplate reader.
A general note: ELISA stands for enzyme-linked immunosorbent assay.

For experiment [2], the target named is T1, human VEGFA165. The experiment is described as follows: competitive ELISA, coated VEGFA, competitor VEGFR2-ECD-Fc 1 nM.
Experiment [3] concerns the target T1, human VEGFA165. Kind of experiment: ELISA, coated human VEGFA165, anti-His detection. The protocol:
as §1
The purified bivalent humanized nanobodies were evaluated for their VEGFA binding activity, and the experimental procedure was the same as that described in “2.
The source holds these as a separate data set.

Experiment [4] addresses T1, human VEGFA165. The experiment is described as follows: SPR Biacore 8K, VEGFA165 on CM5, nanobody analyte, 1:1 fit. The protocol: Using the Biacore 8K instrument (Cytiva), the antigen VEGFA165 (label-free, purchased from Sino Biological, Cat. No.: HPLC-10008-HNAH) as the ligand was coupled onto a CM5 chip through amino-coupling reagents (EDC and NHS), with the coupling level being about 400 RU. The mobile phase buffer was HBS-EP (0.01 M HEPES pH 7.4, 0.15 M NaCl, 3 mM EDTA, 0.005% v/v Tween 20) during the experiment. […] In the kinetic analysis, the binding time between the antigen and the antibody was 240 s, the dissociation time was 1500 s, and the flow rate was 30 μL/min. In a multi-cycle mode, the chip was regenerated with 100 mM hydrochloric acid.
For orientation: SPR reads the build-up and loss of mass on a sensor chip optically.

The target of experiment [5] is T1, human VEGFA165. The experiment is described as follows: competitive ELISA, coated VEGFA, competitor VEGFR2-ECD-Fc 1 nM. This is another data set of the same source.
Experiment [6] addresses T1, human VEGFA165. The experiment is described as follows: ELISA, coated human VEGFA165, anti-His detection. The procedure: as §1
This is another data set of the same source.

T1 sequence (P15692 other isoform, or with tags, fused parts or gaps limits assumed): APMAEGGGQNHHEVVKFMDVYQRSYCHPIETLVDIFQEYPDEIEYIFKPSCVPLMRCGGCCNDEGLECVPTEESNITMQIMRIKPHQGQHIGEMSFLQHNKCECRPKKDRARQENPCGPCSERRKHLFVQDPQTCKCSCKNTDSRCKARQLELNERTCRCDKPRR

B1: 2V15-30GS (VHH)
chain: QLQLVESGGGSVQPGGSLRLSCEVSGRTFASYTMGWFRQAPGKEREFVVAISKGGYKYDSVSLEARFTISKDNTKNTVYLQMNSLKPEDTAVYYCAGTRAYGSSRLRLAETYEYWGQGTQVTVSSGGGGSGGGSGGGGSGGGSGGGSGGGSGGGSQLQLVESGGGSVQPGGSLRLSCEVSGRTFASYTMGWFRQAPGKEREFVVAISKGGYKYDSVSLEARFTISKDNTKNTVYLQMNSLKPEDTAVYYCAGTRAYGSSRLRLAETYEYWGQGTQVTVSS
notes: Tandem bivalent nanobody
What is called EC50 is the concentration needed to bring the measured effect to its halfway point. Low readings indicate an effect from little substance, high ones a need for much substance. Broadly, the IC50 is the point on the concentration scale where inhibition reaches its midpoint. Higher therefore signals weaker potency in that assay. With B1, the EC50 with human VEGFA165 [1] is 0.27 nM. Besides, in the experiment with human VEGFA165 [2], the IC50 is 1.6 nM and the “Maximum inhibition rate (%)” value came out at 94.1%.

B2: 2V1-DP-3GS (VHH)
chain: EVQLVESGGGLVQPGGSLRLSCAVSGRTFSSYTMGWFRQAPGKEREFVVAISKGGYKYDSVSLEARFTISRDNSKNTVYLQMNSLRPEDTAVYYCAATRAYGSSRLRLADTYEYWGQGTLVTVSSGGSEVQLVESGGGLVQPGGSLRLSCAVSGRTFSSYTMGWFRQAPGKEREFVVAISKGGYKYDSVSLEARFTISRDNSKNTVYLQMNSLRPEDTAVYYCAATRAYGSSRLRLADTYEYWGQGTLVTVSS
notes: Tandem bivalent humanized nanobody
As for B2, the half-maximal effective concentration (EC50) with human VEGFA165 [3] is 0.27 nM.

B3: 2V43-1H-2m-3GS (VHH)
chain: B2 chain with V24A, D110N, V152A, D238N
notes: as for B2
Regarding B3, a half-maximal effect with human VEGFA165 [3] (EC50) was put at 1.19 nM.

B4: 2V15-4m-3GS (VHH)
chain: B2 chain with V24A, S30A, S74A, A97G, D110E, V152A, S158A, S202A, A225G, D238E
notes: as for B2
Consider B4, for which, in the experiment with human VEGFA165 [3], the EC50 was 0.24 nM.

B5: 2V30-2H-2m-3GS (VHH)
chain: B2 chain with V24A, S60A, D110K, V152A, S188A, D238K
notes: as for B2
In the experiment with human VEGFA165 [3], B5 had an EC50 of 0.94 nM.

B6: 2V1-SA1-3GS (VHH)
chain: B2 chain with S74A, S202A
notes: as for B2
B6: in the experiment with human VEGFA165 [3], the midpoint of the response, the EC50, lay at 0.26 nM.

B7: V29 (VHH)
VHH: QLQLVESGGGSVQPGGSLRLSCEVSGRTFSSYTMGWFRQAPGKEREFVVAISKGGYKYDSVSLEARFTISKDNTKNTVYLQMNSLKPEDTAVYYCAGTRAYGSSRLRLANTYEYWGQGTQVTVSS
notes: Monovalent nanobody; tag not described here
The Kd is the concentration at which binding is half-saturated. Low values mean tighter binding, high ones weaker binding. One may read the koff as the rate constant with which the complex falls apart. The low end stands for slow dissociation, the high end for fast dissociation. A word on the kon: it is the rate constant with which the complex forms. As for B7, in the experiment with human VEGFA165 [4], the Kd was 0.653 nM, the off-rate constant (koff) came to 0.000154 s⁻¹ and the kon stood at 236000 M⁻¹ s⁻¹.

B8: V33 (VHH)
VHH: B7 VHH with G97A, N110K
notes: as for B7
On to B8, for which, in the experiment with human VEGFA165 [4], the Kd is 0.719 nM, the koff was found to be 0.000233 s⁻¹ and the kon came to 324000 M⁻¹ s⁻¹.

B9: 2V15-39GS (VHH)
chain: QLQLVESGGGSVQPGGSLRLSCEVSGRTFASYTMGWFRQAPGKEREFVVAISKGGYKYDSVSLEARFTISKDNTKNTVYLQMNSLKPEDTAVYYCAGTRAYGSSRLRLAETYEYWGQGTQVTVSSGGGGSGGGSGGGGSGGGGSGGGGSGGGGSGGGGSGGGGSQLQLVESGGGSVQPGGSLRLSCEVSGRTFASYTMGWFRQAPGKEREFVVAISKGGYKYDSVSLEARFTISKDNTKNTVYLQMNSLKPEDTAVYYCAGTRAYGSSRLRLAETYEYWGQGTQVTVSS
notes: Tandem bivalent nanobody
B9 gave an EC50 in the experiment with human VEGFA165 [1] of 0.38 nM. For the same molecule, in the experiment with human VEGFA165 [2], the IC50 was determined as 1.74 nM and the “Maximum inhibition rate (%)” value was 94.5%.

B10: 2V1-DP-9GS (VHH)
chain: EVQLVESGGGLVQPGGSLRLSCAVSGRTFSSYTMGWFRQAPGKEREFVVAISKGGYKYDSVSLEARFTISRDNSKNTVYLQMNSLRPEDTAVYYCAATRAYGSSRLRLADTYEYWGQGTLVTVSSGGGGSGGGSEVQLVESGGGLVQPGGSLRLSCAVSGRTFSSYTMGWFRQAPGKEREFVVAISKGGYKYDSVSLEARFTISRDNSKNTVYLQMNSLRPEDTAVYYCAATRAYGSSRLRLADTYEYWGQGTLVTVSS
notes: as for B2
As to B10, a half-maximal effect in the experiment with human VEGFA165 [3] (EC50) was put at 0.23 nM.

B11: V1-V15 (bispecific antibody)
chain: QLQLVESGGGSVQPGGSLRLSCEVSGRTFSSYTMGWFRQAPGKEREFVVAISKGGYKYDSVSLEARFTISKDNTKNTVYLQMNSLKPEDTAVYYCAATRAYGSSRLRLADTYEYWGQGTQVTVSSGGGGSGGGSQLQLVESGGGSVQPGGSLRLSCEVSGRTFASYTMGWFRQAPGKEREFVVAISKGGYKYDSVSLEARFTISKDNTKNTVYLQMNSLKPEDTAVYYCAGTRAYGSSRLRLAETYEYWGQGTQVTVSS
Consider B11, for which, in the experiment with human VEGFA165 [5], the IC50 is 3.8 nM and the “Maximum inhibition rate (%)” value was determined as 87.8%. The EC50 in the experiment with human VEGFA165 [6] worked out at 0.29 nM.

B12: V15-V40 (bispecific antibody)
chain: B11 chain with S30A, A97G, D110E, A164T, D193N, S194A, G231A, E244K
In the case of B12, in the experiment with human VEGFA165 [5], the IC50 turned out to be 4.06 nM and the “Maximum inhibition rate (%)” value came out at 90.1%. In addition, a half-maximal response with human VEGFA165 [6] (EC50) required 0.26 nM.

B13: V30-V40 (bispecific antibody)
chain: B11 chain with E44G, S60A, D110K, A164T, D193N, S194A, G231A, E244K
On to B13, for which, in the experiment with human VEGFA165 [5], the IC50 was 3.32 nM and the “Maximum inhibition rate (%)” value was 89.8%. Further, the 50% effective concentration (EC50) in the experiment with human VEGFA165 [6] stood at 0.31 nM.

B14: V15-V30 (bispecific antibody)
chain: B11 chain with S30A, A97G, D110E, A164S, E178G, S194A, G231A, E244K
For B14, in the experiment with human VEGFA165 [5], the half-inhibitory concentration (IC50) was determined as 3.22 nM and the “Maximum inhibition rate (%)” value turned out to be 91.2%. Besides, the response with human VEGFA165 [6] was half-maximal at 0.41 nM (EC50).

B15: V1-V30 (bispecific antibody)
chain: B11 chain with A164S, E178G, S194A, G231A, E244K
For the molecule B15, in the experiment with human VEGFA165 [5], the concentration for half-maximal inhibition (IC50) is 2.84 nM and the “Maximum inhibition rate (%)” value was found to be 91.1%. Besides, a half-maximal effect in the experiment with human VEGFA165 [6] (EC50) was put at 0.31 nM.

B16: V1-V40 (bispecific antibody)
chain: B11 chain with A164T, D193N, S194A, G231A, E244K
As to B16, in the experiment with human VEGFA165 [5], the IC50 was 3.74 nM and the “Maximum inhibition rate (%)” value was 88.5%. Moreover, a half-maximal response in the experiment with human VEGFA165 [6] (EC50) required 0.42 nM.

B17: 2V30-2H-2m-NL (VHH)
chain: EVQLVESGGGLVQPGGSLRLSCAASGRTFSSYTMGWFRQAPGKEREFVVAISKGGYKYDAVSLEARFTISRDNSKNTVYLQMNSLRPEDTAVYYCAATRAYGSSRLRLAKTYEYWGQGTLVTVSSEVQLVESGGGLVQPGGSLRLSCAASGRTFSSYTMGWFRQAPGKEREFVVAISKGGYKYDAVSLEARFTISRDNSKNTVYLQMNSLRPEDTAVYYCAATRAYGSSRLRLAKTYEYWGQGTLVTVSS
notes: as for B2
B17: in the experiment with human VEGFA165 [3], the EC50 came out at 0.81 nM.

B18: 2V1-SA1-NL (VHH)
chain: B17 chain with A24V, A60S, S74A, K110D, A149V, A185S, S199A, K235D
notes: as for B2
B18: in the experiment with human VEGFA165 [3], it took 0.28 nM to reach a half-maximal effect (EC50).

B19: 2V1-DP-NL (VHH)
chain: B17 chain with A24V, A60S, K110D, A149V, A185S, K235D
notes: as for B2
Consider B19, for which the EC50 in the experiment with human VEGFA165 [3] stood at 0.2 nM.

B20: 2V40-3H-2m-NL (VHH)
chain: B17 chain with D59N, D184N
notes: as for B2
The molecule B20 gave a 50% effective concentration (EC50) with human VEGFA165 [3] of 0.26 nM.

B21: 2V15-4m-NL (VHH)
chain: B17 chain with S30A, A60S, S74A, A97G, K110E, S155A, A185S, S199A, A222G, K235E
notes: as for B2
For the molecule B21, in the experiment with human VEGFA165 [3], a half-maximal response (EC50) required 0.19 nM.

B22: 2V13-4m-NL (VHH)
chain: B17 chain with S30T, S74A, A97G, K110D, S155T, S199A, A222G, K235D
notes: as for B2
In the experiment with human VEGFA165 [3], B22 yielded an EC50 of 0.22 nM.
